Measurements from US20020044944A1.

B1: shFas(nd29)-hinge (receptor)
chain: TQNLEGLHHDGQFCHKPCPPGERKARDCTVNGDEPDCVPCQEGKEYTDKAHFSSKCRRCRLCDEGHGLEVEINCTRTQNTKCRCKPNFFCNSTVCEHCDPCTKCEHGIIKECTLTSNTKCKEEGSRSNEPKSCDKTHTCPPCP
B2: shFas(nd29)-hinge, higher molecular weight gel filtration fraction (fractions 1 and 2, seemed to correspond to a dimer) (receptor)
chain: B1 chain

Tests used:
mouse Fas ligand (mouse) = mouse Fas ligand (mouse) (UniProt P41047); experiment: cell-based or functional assay
human Fas ligand (human) = human Fas ligand (human) (UniProt P48023); experiment: cell-based or functional assay
Chain of UniProt P48023 (P48023 whole entry): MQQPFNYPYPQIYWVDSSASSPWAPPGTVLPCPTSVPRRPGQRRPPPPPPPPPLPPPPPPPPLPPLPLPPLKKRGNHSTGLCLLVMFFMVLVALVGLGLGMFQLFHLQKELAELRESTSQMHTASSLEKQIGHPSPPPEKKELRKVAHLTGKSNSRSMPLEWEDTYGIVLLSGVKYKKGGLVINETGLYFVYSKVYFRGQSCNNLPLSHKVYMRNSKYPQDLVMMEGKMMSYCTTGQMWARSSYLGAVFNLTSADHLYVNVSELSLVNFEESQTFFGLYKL

Chain of UniProt P41047 (P41047 whole entry): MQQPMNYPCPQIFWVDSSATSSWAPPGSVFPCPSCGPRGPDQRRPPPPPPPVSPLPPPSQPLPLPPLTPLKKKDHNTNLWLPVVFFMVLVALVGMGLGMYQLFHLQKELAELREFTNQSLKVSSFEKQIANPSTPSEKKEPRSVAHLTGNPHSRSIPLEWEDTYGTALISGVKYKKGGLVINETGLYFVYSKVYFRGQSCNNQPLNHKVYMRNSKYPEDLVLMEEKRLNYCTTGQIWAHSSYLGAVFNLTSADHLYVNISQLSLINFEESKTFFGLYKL

Binder | specific cytotoxicity inhibition activity (51Cr release; FLm14 effector cells, W4 target cells; FIG. 12) (times higher than hFas-Fc) (mouse Fas ligand (mouse)) | specific cytotoxicity inhibition activity (51Cr release; 1A12 effector cells, WC8 target cells; FIG. 11) (times higher than hFas-Fc) (human Fas ligand (human)) | cytotoxicity inhibition activity by the assay described in Inventive Example 8 (human Fas ligand (human); scale: times stronger than the lower molecular weight fraction)
B1 | 3 to 10 | 3 to 10 | –
B2 | – | – | > 50
